One data set relates to rabbits. The conditions noted are these: calculated on a molar basis; cited from earlier work.
In another data set the test system is liver enzymes. The conditions noted are these: cited from earlier work.
A short description of data set [1]: In vitro release of PEG-insulin from PLGA microspheres. The settings on record: PLGA 45:55 microspheres, nominal core load 25 wt %. Type of data set: physicochemical. The protocol: A sample of 15 mg […] PEG-insulin microspheres (14.1% drug content, PLGA 45:55; 0.15 dl/g IV, acid end groups) was suspended in 1.5 ml phosphate buffered saline (pH 7.4, 0.02% sodium azide and 0.02% Tween20) and incubated at 37° C. The supernatant was withdrawn at intervals and analyzed by RP HPLC for released PEG-insulin. The buffer was replaced with fresh PBS and the incubation continued. The data were analyzed for cumulative release as a function of incubation time (FIG. 4). Less than 1.0% of the PEG-insulin is released in the first day and over 95% is released within 18 days. The low “burst” release, high total release and duration over approximately a two-week period are highly desired features of a sustained release insulin formulation.

A short description of data set [2]: Characterization of PEG-insulin PLGA microspheres (coreload, encapsulation efficiency by RP-HPLC). The settings on record: PLGA 45:55 L:G, 0.15 dL/g, acid end group microspheres, nominal core load 25 wt %. It counts as physicochemical. As to the method: PEG-insulin F5000 (50 mg) was dissolved in 1 ml methylene chloride. The solution was added to a volume of 1 ml methylene chloride containing 150 mg PLGA 45:55 (lac:gly), 0.15 dl/g IV with acid end groups. The methylene chloride solution was added to 5 ml water containing 1% poly(vinyl alcohol) in a 15 ml centrifuge tube and vortex-mixed to form an emulsion. The emulsion was added to 100 ml of water containing 0.3% poly(vinyl alcohol) and stirred for 3 hrs to evaporate the methylene chloride. The hardened microspheres were collected by vacuum filtration on Whatman #1 filter paper and dried.
The PEG-insulin microspheres' surface morphology and particle size distribution were examined by scanning electron microscope and laser-light scattering particle size analysis, respectively. Analytical reverse phase HPLC was used to quantify the amount of PEG-insulin conjugate encapsulated within the polymer microspheres. Prior to HPLC analysis, a measured quantity of microspheres was dissolved in a volume of acetonitrile, and an equivalent volume of 0.1% TFA in water was added to precipitate the polymer and extract the conjugate into aqueous solution. K2000, K5000, K10000, K20000 and F5000-A were also encapsulated using this method. The results of these tests are collected in Table 1, which lists the PEG-insulin content in % (w/w) of the total microsphere and the encapsulation efficiency, defined as weight of PEG-insulin encapsulated/weight of PEG-insulin added initially. Relatively high drug content up to 28.3% and encapsulation efficiency, up to 100%, were achieved, making the product clinically useful due to reduced total dose required, and commercially attractive due to low losses of starting material. In addition, microspheres were prepared using polymers of varying lactide:glycolide ratios (50:[…]), molecular weights (6.5-24 kDa), intrinsic viscosities (0.09-0.27 dL/g), or terminal ester groups (methyl and lauryl), with a wide range of drug loadings (5-35 wt %).
Microspheres were prepared with PLGA (45:55 L:G, 0.15 dL/g, acid end group) to a nominal core load of 25 wt %.

Data set [3] has as its system fasted Sprague-Dawley rats. Description: Pharmacodynamics of PEG-insulin conjugates after intravenous injection to normal rats (blood glucose). Type of data set: in vivo, rat. The settings on record: 0.3 IU/kg equivalent; for suppression of glucose levels relative to normal human insulin: tail vein injection, fasted Sprague-Dawley rats, 6 hrs, vs Humulin R. As to the method:
The effects of PEGylation on insulin pharmacodynamics were investigated. These studies were conducted to evaluate the in vivo biological activity (ability to lower serum glucose) of conjugate formulations containing PEG-insulins differing in site of substitution (positional isomers) or PEG molecular weight, relative to a commercially available insulin formulation (Humulin R, Lilly). Blood glucose levels were measured for fasted Sprague-Dawley rats after intravenous administration of F5000, K2000, K5000, K10000, or HumulinR®. The equivalent of 0.3 IU/kg (based on protein concentration and corrected for the weight of the PEG as appropriate; assumes 25 IU/mg protein) were dissolved in normal saline and administered by tail vein injection; N=6 per group. Blood was drawn before test article injection and at intervals over a period of 6 hrs post injection. Serum was isolated by standard procedure and glucose levels were measured using an Accucheck Advantage (Boeringer Ingelheim) glucose meter.

Take “mPEG(1500)-B1-insulin: prior-art site-specific PEG 1500 conjugate of insulin at residue PheB1 (Obermeier; Geiger; Ehrat)”: the “insulin effect on reduction of blood sugar levels” value with rabbits is listed as 100%. The “stability to liver enzymes compared with native insulin” value with liver enzymes is given as “far more stable (to liver enzymes)”.

Consider “K20000: branched mPEG2-SPA 20,000 Da attached to the amino group of LysB29 of insulin [Conjugate K20000]”, for which the “In vitro release, Initial burst” value in data set [1] came to 80%. For the same substance, in data set [2], the Coreload was determined as 14 wt % and the “Encapsulation Efficiency” value was 56 wt %.

On to “K5000: PEG-5000 linked to insulin B chain Lys29 [Conjugate K5000]”, for which the “In vitro release, Initial burst” value in data set [1] was 2%. In data set [3], the “suppression of glucose levels relative to normal human insulin” value is listed as “as effective in suppressing the glucose levels in normal rats as equivalent doses of normal human insulin”. Moreover, in data set [2], the Coreload amounted to 24 wt % and the “Encapsulation Efficiency” value turned out to be 96 wt %.

Consider “mPEG(5000)-PheB1-insulin [Conjugate F5000]”, for which the “In vitro release, Initial burst” value in data set [1] is recorded as 2%. Besides, the “suppression of glucose levels relative to normal human insulin” value in data set [3] is “as effective in suppressing the glucose levels in normal rats as equivalent doses of normal human insulin”. Besides, in data set [2], the Coreload was 24 wt % and the “Encapsulation Efficiency” value was 96 wt %.

Turning to “F5000-A: probably F5000 made with mPEG(5000)-aldehyde, secondary amine bond at PheB1 (Example 5) [Conjugate F5000-A]”, in data set [1], the “In vitro release, Initial burst” value is listed as 20% and the “In vitro release, Total” value was found to be 97%. Moreover, in data set [2], the Coreload turned out to be 21 wt % and the “Encapsulation Efficiency” value stood at 85 wt %.

Turning to “K2000: linear mPEG-SPA 2000 Da attached to the amino group of LysB29 of insulin [Conjugate K2000]”, the “In vitro release, Initial burst” value in data set [1] was 6%. Also, the “suppression of glucose levels relative to normal human insulin” value in data set [3] is recorded as “as effective in suppressing the glucose levels in normal rats as equivalent doses of normal human insulin”. In data set [2], the Coreload is 24 wt % and the “Encapsulation Efficiency” value was determined as 96 wt %.

Take “K10000: branched mPEG2-SPA 10,000 Da attached to the amino group of LysB29 of insulin [Conjugate K10000]”: the “In vitro release, Initial burst” value in data set [1] is reported as 80%. Also, in data set [3] (intravenous, normal rats), the duration of action entry is recorded as “exceed 6 hours”. The “suppression of glucose levels relative to normal human insulin” value in data set [3] is reported as “did not reduce glucose levels to the same extent as the other test articles”. In data set [2], the Coreload came out at 19 wt % and the “Encapsulation Efficiency” value turned out to be 76 wt %.

Values taken from patent publication US9789196B2, “Site-specific insulin-polymer conjugates” (AntriaBio, Inc., priority 2003, dated 2017).
